Legend:
[1] = target: LFA-1 single cysteine substitution mutant K294C (human) (UniProt P05107); assay: flow cytometry, 293T; normalised to TS2/4
[2] = target: LFA-1 high affinity open mutant K287C/K294C (αL K287C/K294C with β2) (human) (UniProt P05107); assay: flow cytometry, 293T; normalised to TS2/4
[3] = target: LFA-1 single cysteine substitution mutant K287C (human) (UniProt P05107); assay: flow cytometry, 293T; normalised to TS2/4
[4] = target: LFA-1 single cysteine substitution mutant L289C (human) (UniProt P05107); assay: flow cytometry, 293T; normalised to TS2/4
[5] = target: LFA-1 low affinity closed mutant L289C/K294C (αL L289C/K294C with β2) (human) (UniProt P05107); assay: flow cytometry, 293T; normalised to TS2/4
[6] = target: wild-type LFA-1 (αL/β2 complex) (human) (UniProt P05107); assay: K562 (+CBRLFA-1/2) cell adhesion to immobilized ICAM-1
[7] = target: LFA-1 high affinity open mutant K287C/K294C (αL K287C/K294C with β2) (human) (UniProt P05107); assay: 293T cell adhesion to immobilized ICAM-1
[8] = target: wild-type LFA-1 (αL/β2 complex) (human) (UniProt P05107); assay: 293T cell adhesion to immobilized ICAM-1
[9] = target: LFA-1 high affinity open mutant K287C/K294C (αL K287C/K294C with β2) (human) (UniProt P05107); assay: K562 cell adhesion to immobilized ICAM-1
[10] = target: LFA-1 high affinity open mutant K287C/K294C (αL K287C/K294C with β2) (human) (UniProt P05107); assay: flow cytometry, K562; normalised to TS2/4
[11] = target: LFA-1 low affinity closed mutant L289C/K294C (αL L289C/K294C with β2) (human) (UniProt P05107); assay: flow cytometry, K562; normalised to TS2/4
[12] = target: wild-type LFA-1 (αL/β2 complex) (human) (UniProt P05107); assay: cell adhesion to immobilized ICAM-1
[13] = target: isolated mutant K287C/K294C αL I-domain (V130-A338) expressed on K562 cells by the PDGFR transmembrane domain (human) (UniProt P20701); assay: flow cytometry
[14] = target: LFA-1 high affinity open mutant K287C/K294C (αL K287C/K294C with β2) (human) (UniProt P05107); assay: flow cytometry on transfectants
[15] = target: ICAM-1 purified from human tonsil, immobilized (human) (UniProt P05362); assay: 293T wild-type LFA-1 cell adhesion to immobilized ICAM-1
[16] = target: ICAM-1 purified from human tonsil, immobilized (human) (UniProt P05362); assay: 293T K287C/K294C LFA-1 cell adhesion to immobilized ICAM-1
[17] = target: LFA-1 high affinity open mutant K287C/K294C (αL K287C/K294C with β2) (human) (UniProt P05107); assay: cell adhesion to immobilized ICAM-1
[18] = target: iC3b coated on plastic (UniProt P01024); assay: cell adhesion to immobilized iC3b; -DTT, -activation
[19] = target: LFA-1 high affinity open mutant K287C/K294C (αL K287C/K294C with β2) (human) (UniProt P05107); assay: flow cytometry, K562; normalised to TS1/22
[20] = target: iC3b coated on plastic (UniProt P01024); assay: cell adhesion to immobilized iC3b; -DTT, +activation
[21] = target: iC3b coated on plastic (UniProt P01024); assay: cell adhesion to immobilized iC3b; +DTT, +activation

ICAM-1 purified from human tonsil, immobilized (human), sequence (P05362 28-532 limits assumed, form in doubt): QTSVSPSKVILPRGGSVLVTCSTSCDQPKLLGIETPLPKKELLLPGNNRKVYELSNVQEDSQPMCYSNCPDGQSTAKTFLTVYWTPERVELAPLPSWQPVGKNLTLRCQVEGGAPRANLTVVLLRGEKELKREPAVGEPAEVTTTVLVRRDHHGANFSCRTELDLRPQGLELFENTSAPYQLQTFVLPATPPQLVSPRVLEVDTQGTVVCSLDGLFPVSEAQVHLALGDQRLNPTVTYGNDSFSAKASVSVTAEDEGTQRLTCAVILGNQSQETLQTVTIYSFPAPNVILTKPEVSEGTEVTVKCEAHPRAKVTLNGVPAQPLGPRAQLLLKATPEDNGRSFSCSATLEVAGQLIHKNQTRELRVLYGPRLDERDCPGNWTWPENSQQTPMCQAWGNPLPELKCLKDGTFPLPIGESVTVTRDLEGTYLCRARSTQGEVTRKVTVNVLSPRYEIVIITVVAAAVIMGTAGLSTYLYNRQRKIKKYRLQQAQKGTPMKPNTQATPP
isolated mutant K287C/K294C αL I-domain (V130-A338) expressed on K562 cells by the PDGFR transmembrane domain (human), sequence (P20701 155-363 K312C/K319C limits assumed, form in doubt): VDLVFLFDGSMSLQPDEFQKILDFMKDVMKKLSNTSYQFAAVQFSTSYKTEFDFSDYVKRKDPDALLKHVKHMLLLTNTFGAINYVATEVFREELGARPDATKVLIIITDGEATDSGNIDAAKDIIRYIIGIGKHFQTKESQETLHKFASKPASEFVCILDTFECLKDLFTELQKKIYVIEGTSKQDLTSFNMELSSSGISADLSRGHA

Substance monoclonal antibody May.035 has a % wild-type binding [1] of 106%, a % wild-type binding [2] of 92.6% and a % wild-type binding [3] of 95.8%. For the same substance, the % wild-type binding [4] was 95.4%, the % wild-type binding [5] was 82.1% and the % inhibition [6] was 95.8%. The % inhibition [7] was 97.4%, the % inhibition [8] was 96.2% and the % inhibition [9] was 93.3%. The % wild-type binding [10] was 92.6% and the % wild-type binding [11] was 101%.

monoclonal antibody CLBLFA-1/1 was tested, and the % inhibition [6] was 94.6%, the % inhibition [12] was greater than 90% and the % inhibition [9] was 6.69%. For the same substance, the % wild-type binding [10] was 96.5% and the % wild-type binding [11] was 100%.

Substance “mouse anti-human αL (CD11a) monoclonal antibody TS2/14” has a % wild-type binding [1] of 103%, a % wild-type binding [2] of 85.5% and a % wild-type binding [3] of 103%. The % wild-type binding [4] was 100%, the % wild-type binding [5] was 83.3% and the % inhibition [6] was 96.2%. It also gave a % inhibition [12] greater than 90%, a % inhibition [7] of 2.95% and a % inhibition [8] of 94.5%. For the same substance, the % inhibition [9] was 8.55%, the % wild-type binding [10] was 95.4% and the % wild-type binding [11] was 103%.

With monoclonal antibody CBRLFA-1/1 the % wild-type binding [1] was 89.4%, the % wild-type binding [2] was 43.6% and the % wild-type binding [3] was 86.1%. For the same substance, the % wild-type binding [4] was 93.3%, the % wild-type binding [5] was 95.9% and the % inhibition [6] was 94.7%. For the same substance, the % of binding to the wild-type I-domain [13] was 80%, the % of wild-type binding [14] was 40 to 50% and the % inhibition [12] was greater than 90%. It also gave a % inhibition [7] of 9.03%, a % inhibition [8] of 92.5% and a % inhibition [9] of 2.85%. The % wild-type binding [10] was 55.5% and the % wild-type binding [11] was 118%.

monoclonal antibody RR1/1 gave a % inhibition [15] of 96% and a % inhibition [16] of 97.9%.

In the case of “mouse anti-human αL (CD11a) monoclonal antibody TS1/12”, the % wild-type binding [1] is reported as 93.7%, the % wild-type binding [2] is reported as 88.7% and the % wild-type binding [3] is reported as 99.3%. The % wild-type binding [4] was 104%, the % wild-type binding [5] was 102% and the % inhibition [6] was 97.5%. For the same substance, the % inhibition [17] was 40 to 60%, the % inhibition [12] was greater than 90% and the % inhibition [7] was 49%. The % inhibition [8] was 95.7%, the % inhibition [9] was 63.7% and the % wild-type binding [10] was 87.3%. For the same substance, the % wild-type binding [11] was 106%.

Work on “Mac-1 (αMβ2) mutant F297C/A304C (from UniProt P05107 23-769) (receptor)” yielded a percent of binding by activated wild type transfectant [18] of 0 to 5%.

For mAb YFC51 (antibody), the % wild-type binding [2] was 103%, the % wild-type binding [5] was 95.1% and the % inhibition [6] was 98.4%. It also gave a % inhibition [12] greater than 90%, a % inhibition [9] of 0.08% and a % wild-type binding [10] of 101%. For the same substance, the % wild-type binding [11] was 111%.

“mouse anti-human αL (CD11a) monoclonal antibody TS2/4” was tested, and the % inhibition [6] was 6.99% and the % inhibition [9] was 2.82%.

Work on “mouse anti-human αL (CD11a) monoclonal antibody TS2/6” yielded a % wild-type binding [1] of 91.7%, a % wild-type binding [2] of 84.9% and a % wild-type binding [3] of 91.4%. It also gave a % wild-type binding [4] of 88.2%, a % wild-type binding [5] of 78.6% and a % inhibition [6] of 91.8%. For the same substance, the % inhibition [7] was 79.1%, the % inhibition [8] was 96.8% and the % inhibition [9] was 88.1%. For the same substance, the % wild-type binding [10] was 89.2% and the % wild-type binding [11] was 95.9%.

monoclonal antibody S6F1 gave a % wild-type binding [1] of 92.3%, a % wild-type binding [2] of 89.4% and a % wild-type binding [3] of 98.3%. For the same substance, the % wild-type binding [4] was 86.4%, the % wild-type binding [5] was 95.3% and the % inhibition [6] was 6.19%. The % inhibition [9] was 9.7%, the % wild-type binding [10] was 97.4% and the % wild-type binding [11] was 85.7%.

In the case of monoclonal antibody BL5, the % wild-type binding [1] is reported as 88.3%, the % wild-type binding [2] is reported as 92.4% and the % wild-type binding [3] is reported as 93.3%. For the same substance, the % wild-type binding [4] was 92.4%, the % wild-type binding [5] was 85.8% and the % inhibition [6] was 97.5%. It also gave a % inhibition [7] of 91.1%, a % inhibition [8] of 97% and a % inhibition [9] of 90.7%. It also gave a % wild-type binding [10] of 92.4% and a % wild-type binding [11] of 97.6%.

For monoclonal antibody F8.8, the % wild-type binding [1] was 95.5%, the % wild-type binding [2] was 93.7% and the % wild-type binding [3] was 95.9%. The % wild-type binding [4] was 99.6%, the % wild-type binding [5] was 83.6% and the % inhibition [6] was 97.6%. It also gave a % inhibition [7] of 91.9%, a % inhibition [8] of 94.5% and a % inhibition [9] of 98.2%. For the same substance, the % wild-type binding [10] was 102% and the % wild-type binding [11] was 93.9%.

For monoclonal antibody CBRLFA-1/9, the % inhibition [6] was 97.8%, the % wild-type binding [19] was 84.7% and the % inhibition [9] was 3.6%.

For “Mac-1 (αMβ2) mutant D294C/T307C (from UniProt P05107 23-769) (receptor)”, the percent of binding by activated wild type transfectant [20] was 5 to 25% and the percent of binding by activated wild type transfectant [18] was 0 to 5%.

monoclonal antibody May.017 was tested, and the % inhibition [6] was 97.8%, the % inhibition [12] was greater than 90% and the % inhibition [9] was 2.98%.

“Mac-1 (αMβ2) mutant Q163C/R313C (locked closed) (from UniProt P05107 23-769) (receptor)” gave a percent of binding by activated wild type transfectant [21] of 50 to 75%, a percent of binding by activated wild type transfectant [20] of 0 to 5% and a percent of binding by activated wild type transfectant [18] of 0 to 5%.

monoclonal antibody 6.5E gave a % inhibition [6] of 98.4%, a % inhibition [12] greater than 90% and a % inhibition [9] of 5.79%.

For “Mac-1 (αMβ2) mutant Q298C/N301C (from UniProt P05107 23-769) (receptor)”, the percent of binding by activated wild type transfectant [20] was 5 to 25% and the percent of binding by activated wild type transfectant [18] was 0 to 5%.

“mouse anti-human αL (CD11a) monoclonal antibody TS1/11” gave a % wild-type binding [2] of 94.4%, a % wild-type binding [5] of 93.7% and a % inhibition [6] of 96.5%. The % inhibition [17] was 40 to 60%, the % inhibition [12] was greater than 90% and the % inhibition [7] was 45.2%. For the same substance, the % inhibition [8] was 94.1%, the % inhibition [9] was 41.3% and the % wild-type binding [10] was 96%. For the same substance, the % wild-type binding [11] was 105%.

“mouse anti-human αL (CD11a) monoclonal antibody TS1/22” gave a % wild-type binding [1] of 92.2%, a % wild-type binding [2] of 95.8% and a % wild-type binding [3] of 103%. For the same substance, the % wild-type binding [4] was 96.2%, the % wild-type binding [5] was 91% and the % inhibition [6] was 96.9%. It also gave a % inhibition [7] of 95.1%, a % inhibition [8] of 95.8% and a % inhibition [9] of 93.6%. It also gave a % wild-type binding [10] of 93.1% and a % wild-type binding [11] of 110%.

Work on “anti-β2 (CD18) monoclonal antibody CBRLFA-1/7” yielded a % wild-type binding [2] of 95.3%, a % wild-type binding [5] of 91.7% and a % inhibition [6] of 5.04%. It also gave a % inhibition [9] of 5.77%, a % wild-type binding [10] of 95.2% and a % wild-type binding [11] of 97.2%.

Work on “anti-β2 (CD18) monoclonal antibody TS1/18” yielded a % wild-type binding [1] of 108%, a % wild-type binding [2] of 99.8% and a % wild-type binding [3] of 87.9%. For the same substance, the % wild-type binding [4] was 87.3%, the % wild-type binding [5] was 95.7% and the % inhibition [6] was 98.5%. For the same substance, the % inhibition [12] was greater than 90%, the % inhibition [9] was 5.9% and the % wild-type binding [10] was 97.4%. It also gave a % wild-type binding [11] of 106%.

monoclonal antibody 25-3-1 was tested, and the % wild-type binding [2] was 93.1%, the % wild-type binding [5] was 90.9% and the % inhibition [6] was 92%. For the same substance, the % inhibition [12] was greater than 90%, the % inhibition [7] was 3.71% and the % inhibition [8] was 90.5%. It also gave a % inhibition [9] of 2.53%, a % wild-type binding [10] of 88.5% and a % wild-type binding [11] of 85.7%.

From patent US20020123614A1
